To fix the notation:
B1: CheW coupling protein fused to a β-galactosidase truncation (ΔαCheW / ΔωCheW) (natural protein)
chain: MTGMSNVSKLAGEPSGQEFLVFTLGNEEYGIDILKVQEIRGYDQVTRIANTPAFIKGVTNLRGVIVPIVDLRVKFCEGDVEYDDNTVVIVLNLGQRVVGIVVDGVSDVLSLTAEQIRPAPEFAVTLSTEYLTGLGALGERMLILVNIEKLLNSEEMALLDIAASHVA
notes: CheW coupling protein, S. enterica sv; Typhimurium; the cheW gene was PCR-amplified and cloned (SphI/BamHI) into both pB2HΔα and pB2HΔω; One molecule for both fusions (Δα and Δω), since each protein stood in both positions of the two-hybrid system; also called Δα-cheW fusion; Δω-cheW fusion; source: two-hybrid fusion, co-expressed in E. coli MC1061 (pB2HΔα / pB2HΔω derivatives, 20 nM IPTG)
B2: RecA protein fused to a β-galactosidase truncation (ΔαRecA / ΔωRecA) (natural protein)
chain: MAIDENKQKALAAALGQIEKQFGKGSIMRLGEDRSMDVETISTGSLSLDIALGAGGLPMGRIVEIYGPESSGKTTLTLQVIAAAQREGKTCAFIDAEHALDPVYARKLGVDIDNLLCSQPDTGEQALEICDALARSGAVDVIVVDSVAALTPKAEIEGEIGDSHMGLAARMMSQAMRKLAGNLKQSNTLLIFINQIRMKIGVMFGNPETTTGGNALKFYASVRLDIRRIGAVKEGDNVVGSETRVKVVKNKIAAPFKQAEFQILYGEGINFYGELVDLGVKEKLIEKAGAWYSYNGEKIGQGKANATTWLKENPATAKEIEKRVRELLLSNQNATPDFAVDDSEGVAETNEDF
notes: RecA, S. enterica sv; Typhimurium; the recA gene was PCR-amplified and cloned (SphI/BamHI) into both pB2HΔα and pB2HΔω; One molecule for both fusions (Δα and Δω), since each protein stood in both positions of the two-hybrid system; also called Δα-recA fusion; Δω-recA fusion; source: two-hybrid fusion, co-expressed in E. coli MC1061 (pB2HΔα / pB2HΔω derivatives, 20 nM IPTG)

For assay [1], the target named is B2. Description: two-hybrid; β-galactosidase Δα/Δω complementation (pB2HΔα/pB2HΔω) in E. coli MC1061; 37°C, samples 5 h after 20 nM IPTG; activity relative to the non-interaction control strain expressing ΔαAmyA and ΔωDnaE. As to conditions: partners not purified.
Assay [2] has as its target B1. Described as above. As to conditions: partners not purified.

With B1, the “relative β-galactosidase expression” value in assay [1] was > 7 relative to the non-interaction control strain.
With B2, the “relative β-galactosidase expression” value in assay [2] is > 7 relative to the non-interaction control strain.

For the origin of these results see publication PMC4141790, “RecA Protein Plays a Role in the Chemotactic Response and Chemoreceptor Clustering of Salmonella enterica” (PLoS ONE, 2014).
